The values that follow come from article PMC3859194.

For test [1], the target named is 6His-PopZΔ172–177 (Caulobacter crescentus). The test is described as follows: SEC-MALLS.
The target in test [2] is 6His-PopZ P146A (Caulobacter crescentus). The test is described as follows: SEC-MALLS.

With 6His-PopZΔ172–177 (domain or fragment), in test [1], the stoichiometry N (commonly a count of units in the complex or per binding partner) turned out to be 6. Regarding 6His-PopZ P146A (natural protein), in test [2], the stoichiometry N turned out to be 3.
